Experimental findings from US20240043859A1, “HERBICIDE-RESISTANT PROTEIN, AND GENE AND USE THEREOF” (QINGDAO KINGAGROOT CHEMICAL COMPOUND CO., LTD., priority 2020, published 2024) are described below.

A short description of data set [1]: Chromogenic reaction of degrading herbicides in bacteria: 2,4-D. The format is cell-based, Escherichia coli. To be noted: recombinant E. coli expressing the gene, 2,4-D added to the medium, red = phenols. An outline of the steps:
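Colour from 2,4-D degradation was detected at A510 after 5 min at room temperature, with 4-aminoantipyrine and ferricyanide added to culture supernatant in pH 10 borate. Cultures were AAD12-expressing or empty-vector (pET15b) BL21(DE3), grown overnight at 28 °C with 0.5 mM 2,4-D, 0.1 mM IPTG and 2 mM α-ketoglutarate.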

The format of data set [2] is cell-based, Escherichia coli. Here is the method: (§1) To transform the plasmids to be tested, an AAD12-expressing plasmid and a blank control plasmid pET15b were respectively transformed into the protein expression E. coli BL21(DE3) strains. A monoclone was selected and inoculated in a 10 ml centrifuge tube with 3 ml LB medium, and cultivated at 37° C., 200 rpm for 6-8 hours. […] The temperature was switched to 28° C. and the cultivation continued overnight. In the next morning, 200 μL of each bacteria solution was taken and centrifuged to precipitate thallus, 180 μL of the supernatant was taken and added in a 96-well plate, and 20 μL of borate buffer of pH 10 was added. Then the mixture was added with 2 μL of 8% potassium ferricyanide and mixed well, followed by adding 2 μL of 2% 4-aminoantipyrine, and placed at room temperature for 5 min to observe the color and detect the A510 value. […]

Data set [3] can be described thus: Chromogenic reaction of degrading herbicides in bacteria: triclopyr. To be noted: recombinant E. coli expressing the gene. The format is cell-based, Escherichia coli. Here is the method:
as §1

Data set [4] has as its system Arabidopsis thaliana. As to the kind of experiment: Herbicide resistance of transgenic Arabidopsis thaliana seedlings on plate medium (root growth). The format is in vivo. To be noted: Arabidopsis overexpressing the gene. Summed up: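 After 3 days of cold treatment at 4 °C, seeds were cultured at 22 °C under a 16 h/8 h light cycle on MS herbicide medium (0.3 μM 2,4-D in the screen). Root growth was scored against wild-type seedlings at one week. The material was T2 AAD-overexpressing lines (AtUbi10 promoter, MAS terminator, hygromycin marker), two events each, tested with 2,4-D, 2,4-DB sodium and MCPA.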

Data set [5] has as its system Arabidopsis thaliana. The description is as above. The format is in vivo. To be noted: plate medium with 2,4-D (0.3 μmol).

Entries after “also recorded” stand apart in the source; their conditions may differ.

B1: QYD58: AAD-like enzyme, SEQ ID NO. 115 (protein)
chain: MARTFDIEPLAGTTFGAVVRGMKVAILDDAGWRDLYAAWLKYALLVFPGQHLKRDEQIAFAKRFGALEFEMAALSNVKSDGTLRQEKDNDDMMKILKGNMGWHADSTYMPVQAKGAVFSAEIVPGAGGQTGFADMRAAYDALDAGRKAKVERLAAHHSLHYSQSKLGHQTKKQDGEYSGYGLHDGPVPLRPLVKTHPETGRKSLLIGRHAHNIPGMDKAESERLLQELVDFACQPPRVYHHDWTAGDAVVWDNRCLLHQATPWDMTQPRVMWHSRIAGDPRSEAALGVTAVSAAASG
modifications: Synthetic polypeptide, QYD58, D58
For the molecule B1, the “Chromogenic reaction of degrading herbicides in bacteria: 2,4-D” value (from here on “Chromogenic reaction … 2,4-D”) in data set [1] is given as “Yes”; in data set [1] (listed as D58), “could degrade 2,4-D; also recorded: capable of degrading 2,4-D”. Moreover, the “Chromogenic reaction of degrading herbicides in bacteria: MCPA” value (shortened to “Chromogenic reaction … MCPA”) in data set [2] is on record as “Yes”. For the same molecule, the “Chromogenic reaction of degrading herbicides in bacteria: Triclopyr” value (shortened to “Chromogenic reaction … Triclopyr”) in data set [3] is “Yes”; in data set [3] (listed as D58) it was “slight degradation”.

B2: QYD73: AAD-like enzyme, SEQ ID NO. 145 (protein)
chain: MARTFDVQPLDATFGAVISGVKLAALDDETWRELYATWLQYALLVFPGQHLSRDQQIAFARRFGPLEFEIIALSNVKSDGTIRSEVENDDVIKVLKGNMGWHADSTYMPVQAKGAVFTAEVVPSVGGQTGWADMRAAYDALDGATRQKVEQLSAYHSLHYSQSKLGHQHKPGSAYSGYGFHDGPVPLRPLVKTHPETGRKSLLIGRHAHNIPGMDKDESARFLEDLVASACQPPRIYHHTWAAGDAVVWDNRCLLHQATPWDMTQPRVMWHSRIAGDPLSEAALG
modifications: Synthetic polypeptide, QYD73, D73
Consider B2, for which the figures for the “Chromogenic reaction … 2,4-D” value in data set [1] and in data set [1] (listed as D73) were “Yes” and “could degrade 2,4-D; also recorded: capable of degrading 2,4-D”, respectively. The “Chromogenic reaction … MCPA” value in data set [2] is on record as “Yes”. Besides, the “Chromogenic reaction … Triclopyr” value in data set [3] is given as “Yes”; in data set [3] (listed as D73), “slight degradation”.

B3: QYD74: AAD-like enzyme, SEQ ID NO. 147 (protein)
chain: MARAFDIEPLDATFGAIITGVKLAALDDAVWRDLYAAWLEYALLIFPSQNLGRDEQIAFAKRFGALEFELAPISNVNSDGTLITDPDNDILKVLKGNMGWHSDSTYMPIQAKGAVFSARVVPKSGGSTGWADMRAAYDALDDNLKRKVERLAAHHSLRYSQAKLGHFPKKHSAYSGYGFHDGPEPLRPLVKTHPETGRKSLLIGRHAHNIPGMSAEESERFLQELVDFACRPPRVYHHEWTAGDVAVWDNRCLLHQATPWDMSEPRVMWHSRIAGDPTTESALA
modifications: Synthetic polypeptide, QYD74, D74
Regarding B3, the “Chromogenic reaction … 2,4-D” value in data set [1] was “Yes”; in data set [1] (listed as D74) it was “could degrade 2,4-D; also recorded: capable of degrading 2,4-D”. Besides, in data set [2], the “Chromogenic reaction … MCPA” value is given as “Yes”. For the same molecule, the results for the “Chromogenic reaction … Triclopyr” value in data set [3] and in data set [3] (listed as D74) were “Yes” and “slight degradation”, respectively.

B4: QYD52: AAD-like enzyme, SEQ ID NO. 103 (protein)
chain: MTRTLDIEPIDATFGAVVRGIKVAEVDDETFRALYDAWLQYALLIFPDQHLQRDQQIAFAKRFGPLEFEMTAISNVRSDGTLRLEKDNDDVMKILKGNMGWHHDSTYMPVQAKGAVFSAEEVPTIGGRTGFADMRAAYDALDPAMKARIEGLNAYHSLHYSQGKVGHQTRKADGEYSGYGLHDGPVPLRPLVKTHPETGRKSLLAGRHAHNIPGLSQEASDSLLRELIDFACQPPRIYHHDWTPGDAVVWDNRCLMHQATPWDMTQRRIMWHSRIAGDPASESSLAA
modifications: Synthetic polypeptide, QYD52, D52
In the case of B4, the results for the “Chromogenic reaction … 2,4-D” value in data set [1] and in data set [1] (listed as D52) were “Yes” and “could degrade 2,4-D; also recorded: capable of degrading 2,4-D”, respectively. In addition, in data set [2], the “Chromogenic reaction … MCPA” value is given as “Yes”. The “Resistance of transgenic Arabidopsis thaliana: 2,4-D” value in the data set with Arabidopsis thaliana [4] was “Yes”. Besides, the “2,4-D resistance of T1 generation transgenic seedlings (seminal root growth)” value in the data set on Arabidopsis thaliana [5] is listed as “showing tolerance to 2,4-D”.

B5: QYD30: AAD-like enzyme, SEQ ID NO. 59 (protein)
chain: MALSLTPLTPGFVAEASGLDLTRPLDAAAVRTIEQAMDDYAVLVFRNQPLDQDQQIRFAQGFGPLDLGLRKVKGGAHRFDHAELADISNVTVDGSVAGRDHAKIVGNIANQLWHSDSSFQRPRAKYSMLSAVVVPQDGGQTEFADLRAAYDHLPDGMKAAIGDLQAVHYALHSRFLLGDTEYTQAQRDALPAVRWPLVQTDPRSGRKILFVGIHACEVVGMTVAEGRMLLLDLLEHATQREFVYRHHWRVGDLVMWDNTATLHRGRRFDLAQRRELRRATTEEVRLSAEARAAA
modifications: Synthetic polypeptide, QYD30, D30
B5: the “Chromogenic reaction … 2,4-D” value in data set [1] was “Yes”; in data set [1] (listed as D30), “could degrade 2,4-D; also recorded: capable of degrading 2,4-D”. The “Chromogenic reaction … MCPA” value in data set [2] is “Yes”. For the same molecule, the “Chromogenic reaction … Triclopyr” value in data set [3] is on record as “Yes”; in data set [3] (listed as D30) it was “slight degradation”. In addition, the “Resistance of transgenic Arabidopsis thaliana: 2,4-D” value with Arabidopsis thaliana [4] was “Yes”.

B6: QYD76: AAD-like enzyme, SEQ ID NO. 151 (protein)
chain: MARMFDIAPLDATFGAVVTGVKVTRIDDATWRDLHAAWLEYALLIFPGQFLSRAEQIAFAKRFGPLEFEMAPISNVKADGTIRIEADNDDVVKVLKGNMGWHADSTYMPVQAKGAVFSAEVVPGEGGRTGWADMRAAYDALDAARRVRVESLTAYHSLYYSQAKLGHQPKRGSDYSGYGFHDGPVPRRPLVKVHPETGRKSLLIGRHAHNIPGMDVAESTQFLESLVDFACQPPRIYHHQWTAGDAVVWDNRCLLHRATPWDMTKPRVMWHSRIAGDPVSEASLG
modifications: Synthetic polypeptide, QYD76, D76
With B6, the “Chromogenic reaction … 2,4-D” value in data set [1] was “Yes”; in data set [1] (listed as D76) it was “could degrade 2,4-D; also recorded: capable of degrading 2,4-D”. Moreover, the “Chromogenic reaction … MCPA” value in data set [2] was “Yes”. Besides, the “Chromogenic reaction … Triclopyr” value is given as “Yes” in data set [3] and “slight degradation” in data set [3] (listed as D76).

B7: QYD51: AAD-like enzyme, SEQ ID NO. 101 (protein)
chain: MARTLDIEPIDATFGAVVRGIKVAEVDDETFRALYDAWLEYALLIFPDQHLKRDQQIAFAKRFGPLEFEMTAISNVRSDGTLRLEKDNDDVMKVLKGNMGWHHDSTYMPVQAKGAVFSAEEVPTIGGRTGFADMRAAYDALDPAMKARIEGLNAYHSLHYSQGRVGHQTKKSDGEYSGYGLHDGPVPLRPLVKTHPETGRKSLLAGRHAHNIPGLAQEESDRLLRELIDFACQPPRIYHHDWTPGEAVVWDNRCLMHQATPWDMTQRRIMWHSRIAGDPASESARPQP
modifications: Synthetic polypeptide, QYD51, D51
As for B7, the “Chromogenic reaction … 2,4-D” value in data set [1] is reported as “Yes”. The “Chromogenic reaction … 2,4-D” value in data set [1] (listed as D51) is given as “could degrade 2,4-D; also recorded: capable of degrading 2,4-D”. The “Chromogenic reaction … MCPA” value in data set [2] is given as “Yes”. In the data set with Arabidopsis thaliana [4], the “Resistance of transgenic Arabidopsis thaliana: 2,4-D” value was “Yes” and the “Resistance of transgenic Arabidopsis thaliana: MCPA” value is “Yes”. In the data set with Arabidopsis thaliana [5], the “2,4-D resistance of T1 generation transgenic seedlings (seminal root growth)” value is on record as “showing tolerance to 2,4-D”.
